Consider two substances from patent US20190203224A1.

The target of assay [1] is Brush border membrane vesicles (BBMV) prepared from midguts of third instar western corn rootworm (Diabrotica virgifera virgifera LeConte) larvae; putative receptor(s) on the BBMV (Diabrotica virgifera virgifera).
The target is the same in assay [2]. This is another data set of the same source.

Substance “Cry3Aa trypsin core (trypsin-truncated Cry3Aa core protein) (from UniProt P0A379 159-644)” registered a Bmax (binding site concentration) (pmole/ug BBMV) in assay [1] of 146. In assay [2], this substance yielded a Kd of 24 nM.
“Cry35Ab1 chymotrypsin core (chymotrypsin-truncated Cry35Ab1 core protein) (from UniProt Q939S9 1-354)” displayed a Bmax (binding site concentration) (pmole/ug BBMV) in assay [1] of 31.7. Besides, in assay [2], the Kd is 2.31 nM.

As a reminder, the Kd is the concentration at which binding is half-saturated.
